Assay results published in US5597798A, “Taxol and epidermal growth factor used to enhance treatment of ovarian cancer” (The Regents of the University of California, priority 1994, dated 1997).

Key:
2008 cells [1] = assay: Growth rate under EGF exposure; assay type: cell-based, human; details: 2 h or continuous exposure to 10 nM EGF
Text: (§1) During the first 5 days after cell seeding, cell growth was exponential. The doubling times of the 2008, 2008/C13*, and COLO 316 cells were 27.9, 28.2, and 29.2 hs, respectively.

COLO 316 cells [2] = assay: Growth rate under EGF exposure; assay type: cell-based, human; details: 2 h or continuous exposure to 10 nM EGF
Text: as §1

2008/C13* cells [3] = assay: Growth rate under EGF exposure; assay type: cell-based, human; details: 2 h or continuous exposure to 10 nM EGF
Text: as §1

2008 tumor xenografts = assay: Effect of EGF on cisplatin toxicity against tumor xenografts in athymic mice; assay type: in vivo, athymic mice (nu/nu)
Procedure: For these studies, 3 to 4 week old female athymic mice (nu/nu) from BALB/c origin were used which were supplied by Harlan Sprague Dawley, Inc. (Indianapolis, Ind.). The mice were kept in a laminar flow hood at 28° C. and fed standard mouse diet and water ad libitum.
Tumor xenografts were established from 2008 cells by harvesting confluent cell cultures by trypsinization and resuspending the cells in RPMI 1640 medium at 2.5×10^7 cells per ml. From this suspension, 0.2 ml aliquots containing 5×10^6 cells were injected s.c. on each shoulder of the athymic mice. In each mouse, two tumors were followed and tumor volumes were determined using the formula (length×width^2)/2 (Giavazzi et al., Cancer Res. 46:1928 (1986) and Tomayko & Reynolds Cancer Chemother. Pharmacol. 24:148 (1989)).
In all groups, treatment was administered 24 hours after the inoculation with tumor cells.
Tumor growth of each tumor in each animal was expressed as plot of in(tumor volume) as a function of time. The regression line of the in(tumor volume) versus time plot was calculated by using the method of least squares. The intercept and slope were obtained and used to calculate the time each tumor required to reach an arbitrarily defined volume of 1 ml. This volume was chosen because most tumors in all treatment groups reached this endpoint. For comparisons between two groups the unpaired Student's T-test was used. […]

2008 cells [4] = assay: Morphologic changes induced by EGF (light microscopy of colonies); assay type: cell-based, human; details: 10 nM EGF for 2 hs, inspected after 10 days
Text: (§2) The colonies formed by the COLO 316 cells appeared somewhat denser.

COLO 316 cells [5] = assay: as above; assay type: cell-based, human; details: 10 nM EGF for 2 hs, inspected after 10 days
Text: as §2

2008/C13* cells [6] = assay: as above; assay type: cell-based, human; details: 2 h EGF exposure
Text: as §2

[7] = design: species or system mice; details: mouse, in vivo
Procedure: For nephrotoxicity studies, 72 h after treatment, mice were anesthetized and 1.5 ml of blood was sampled by cardiac puncture. Plasma creatinine and blood urea nitrogen (BUN) levels were used to measure toxicity and were determined by an enzymatic method previously described (Kulpman et al., J. Clin. Chem. Clin. Biochem. 28(11): 835 (1990)).

[8] = tested on: 2008 human ovarian carcinoma cells; assay: Colony forming assay, effect of EGF on sensitivity to cytotoxic agents; assay type: cell-based; details: for survival, % of control cells treated with DDP alone: DDP and EGF together
[9] = 2 h exposure to EGF (1 h before and 1 h concurrent with DDP)
[10] = delay between 1 h EGF pre-treatment and 1 h DDP exposure

B1: EGF: Epidermal Growth Factor; murine EGF (Sigma) in clonogenic assays, 125I-labelled human recombinant EGF in binding assays (protein, UniProt P01133 23-1207, looked up)
Pro-epidermal growth factor: PQHWSCPEGTLAGNGNSTCVGPAPFLIFSHGNSIFRIDTEGTNYEQLVVDAGVSVIMDFHYNEKRIYWVDLERQLLQRVFLNGSRQERVCNIEKNVSGMAINWINEEVIWSNQQEGIITVTDMKGNNSHILLSALKYPANVAVDPVERFIFWSSEVAGSLYRADLDGVGVKALLETSEKITAVSLDVLDKRLFWIQYNREGSNSLICSCDYDGGSVHISKHPTQHNLFAMSLFGDRIFYSTWKMKTIWIANKHTGKDMVRINLHSSFVPLGELKVVHPLAQPKAEDDTWEPEQKLCKLRKGNCSSTVCGQDLQSHLCMCAEGYALSRDRKYCEDVNECAFWNHGCTLGCKNTPGSYYCTCPVGFVLLPDGKRCHQLVSCPRNVSECSHDCVLTSEGPLCFCPEGSVLERDGKTCSGCSSPDNGGCSQLCVPLSPVSWECDCFPGYDLQLDEKSCAASGPQPFLLFANSQDIRHMHFDGTDYGTLLSQQMGMVYALDHDPVENKIYFAHTALKWIERANMDGSQRERLIEEGVDVPEGLAVDWIGRRFYWTDRGKSLIGRSDLNGKRSKIITKENISQPRGIAVHPMAKRLFWTDTGINPRIESSSLQGLGRLVIASSDLIWPSGITIDFLTDKLYWCDAKQSVIEMANLDGSKRRRLTQNDVGHPFAVAVFEDYVWFSDWAMPSVMRVNKRTGKDRVRLQGSMLKPSSLVVVHPLAKPGADPCLYQNGGCEHICKKRLGTAWCSCREGFMKASDGKTCLALDGHQLLAGGEVDLKNQVTPLDILSKTRVSEDNITESQHMLVAEIMVSDQDDCAPVGCSMYARCISEGEDATCQCLKGFAGDGKLCSDIDECEMGVPVCPPASSKCINTEGGYVCRCSEGYQGDGIHCLDIDECQLGEHSCGENASCTNTEGGYTCMCAGRLSEPGLICPDSTPPPHLREDDHHYSVRNSDSECPLSHDGYCLHDGVCMYIEALDKYACNCVVGYIGERCQYRDLKWWELRHAGHGQQQKVIVVAVCVVVLVMLLLLSLWGAHYYRTQKLLSKNPKNPYEESSRDVRSRRPADTEDGMSSCPQPWFVVIKEHQDLKNGGQPVAGEDGQAADGSMQPTSWRQEPQLCGMGTEQGCWIPVSSDKGSCPQVMERSFHMPSYGTQTLEGGVEKPHSLLSANPLWQQRALDPPHQMELTQ
modifications: Pro-epidermal growth factor 125I-labelled; murine EGF also used
Question: What does the source list for B1?
Answer: effect on growth rate (2008 cells [1]): Neither a 2 h nor a continuous exposure to 10 nM EGF had any demonstrable impact on the growth rate; effect on growth rate (COLO 316 cells [2]): Neither a 2 h nor a continuous exposure to 10 nM EGF had any demonstrable impact on the growth rate; effect on growth rate (2008/C13* cells [3]): Neither a 2 h nor a continuous exposure to 10 nM EGF had any demonstrable impact on the growth rate; time required for tumors to reach a volume of 1 ml (in words) (2008 tumor xenografts; 1 mg/kg EGF s.c. alone or with 15 mg/kg cisplatin i.p.): no effect on the time required for tumors to reach a volume of 1 ml; final tumor volume (2008 tumor xenografts; 1 mg/kg EGF s.c. and/or 15 mg/kg cisplatin i.p., 24 hours after inoculation): no effect on the final tumor volume; morphologic change of colonies (2008 cells [4]): marked scattering of the colonies and the formation of prominent dendritic processes; morphologic change of colonies (COLO 316 cells [5]): marked scattering of the colonies and the formation of prominent dendritic processes; morphologic response (2008/C13* cells [6]): showed no morphologic response; serum creatinine or BUN [7]: Neither treatment with EGF alone, cisplatin alone, or EGF plus cisplatin resulted in statistically significant increases in serum creatinine or BUN; EGF concentration of maximal enhancement of DDP sensitivity [8, 9]: about 10 nM; lowest EGF concentration that enhanced sensitivity to DDP [8, 9]: 0.4 nM; survival, % of control cells treated with DDP alone ([8]; no cyclohexamide): 31±10%; survival, % of control cells treated with DDP alone ([8]; pretreatment with cyclohexamide inhibiting protein synthesis by 90%): 47±8%; effect of further increase in EGF concentration ([8]; EGF up to 100 nM): no additional change in sensitivity to DDP; loss of EGF mediated increase in sensitivity to DDP [8, 10]: largely disappeared by 24 hs; persistence of EGF mediated increase in sensitivity to DDP [8, 10]: at least 6 hs
